# B1: TPR t1 (parent)
# chain: GACCAAUCUGCCCUCAGAGCUCGAGAACAUCUUCGGAUGCAGAGGAGGCAGGCUUCGGUGGCGCGAUAGCGCCAACGUCCUCAACCUCCAAUGCAUCCCACCACAUGAUGAUGCCUGAAGAGCCUUGGUUUUUUG
# Variants of: B1
# Test: polymerase ribozyme fitness, log enrichment relative to wild type (log ratio); higher = more active; in vitro selection for triplet polymerase activity
# Method in brief: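 Fitness is a logarithmic measure of how a genotype enriched relative to the wild type, with replicate averages weighted by inverse variance. The logarithm uses base 2, and enrichment came from Illumina sequencing of input and output libraries. Those libraries were PCR-built, transcribed mutants of each subunit of a heterodimeric triplet polymerase ribozyme, passed through one triplicate in vitro selection round that included frozen incubation at −7 °C, gel excision of extended constructs and streptavidin-bead capture. Genotypes were kept only if they had ≥10 input reads and ≥1 read per output.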
row,Variant,polymerase ribozyme fitness (log ratio)
1,GACCAAUCUGCCCUCAGAGCUCGAGAACAUCUUCGGAUGCAGAGGAGGCAGGCUUCGGUGGCGCGAUAGCGCCAACGUCCUCAACCUUCAAUGCAUCCCACCACAUGAUGAUGCCUGAAGAGCCUUGGUUUUUUG,-0.0459
2,GACCAAUCUGCCCUCACAGCUCGAGAACAUCUUCGGAUGCAGAGGAAGCAGGCUUCGGUGGCGCGAUAGCGCCAACGUCCUCAACCUCCAAUGCUUCCCACCACAUGAUGAUGCCUGAAGAGCCUUGGUUUUUUG,-5.58
3,GACCAAUCUGCCCUCAGAGCUCGAGAACAUCUUCGGAUGCAGAGGAGGCUGGCUUCGGUGGCGCGAUAGCGCCAACGUCCUCAACCUCCAAUGCAUCCCACCACAUGAUGGUGCCUGAAGAGCCAUGGUUUUUUG,-2.24
4,GACCAAUCUGCCCUCAGAGCUCGAGAACAUCUUCGGAUUCAGAGUAGGCAGGCUUCGGUGGCGCGAUAGCGCGAACGUCCUCAACCUCCAAUGCAUCCCACCACAUGAUGAUGCCUGAAGAGCCUUGGUUUUUUG,-2.79
5,GACCAAUCUGGCCUCAGAGCUCGAGAACAUCUUCGGAUGCAGAGGAGGCAGGCUCCGGUGGGGCGAUAGCGCCAACGUCCUCUACCUCCAAUGCUUCCCACCACAUGAUGAUGCCUGAAGAGCCUUGGUUUUUUG,-1.47
6,GACCAAUCUGCCCUCAGAGCUCGAGAACAUCUUCGGAUGCAGAGGAGGCCGGCUUCGGUGGCGCGAUAGCGACAACGUCCUCAACCUCCAAUGCAUCCCACCACAUGAUGAUGCCUGAAGAGCUUUGGUAUUUUG,0.593
7,GACCAAUCUGCCCUCAGAGCUCGAGAACAUCUUCGGAUGCAGAGUAGGCAGGCUUCGGUGUCCCGAUAGCGCCAACGUCCUCAACCUCCACUGCGUCCCACCACAUGAUCAUGCCUGAAGAGCCUUGGUUUUUUG,-4.25
8,GACCAAUCUGCCCUCAGAGCUCGAGAACAUCUUCGGAUGCAGAGGAGGGAGGCUUCGGUGGCGCUAUAGCGCCAACGUCCUCAACCUCCAAUGCAUCCCACCACAUGAUGAUGCCUGAAGAGCCUUGGUUUUUUG,-4.97
9,GACCAUUCUGCCCUCAUAGCUCGAGAACAUCUUCGGAUGUAGAGGAGGCAGGCUUCGGUGGCGCGAUAGCGCCAAGGUCCUCAACCUCCAAUGCAUCCCACCACAUGAUGAUGCCUGAAGAGCCUUGGUUUUUUG,-3.15
10,GACCAAUCUGUCCUCAGAGCUCGAGAACAUCUUCGGAUGCAGAGGAGGCAGGCUUCGGUGGCGCGAUAGCGCCAACGUCCUCAACCUCCAAUGCAUCCCACCACAUGAUGAUGCCUGAAAAGCCUUGGUUUUUUG,0.0588
11,GACCGAUCUGCCCUCAGAGCUCGAGAACAUCUUCGGAUGCAGAGGAGGCAGGCUUCGGUGGCGCGAUAGCGCCAACGACCUCAACCUCCAAUGCAUCCCACCACAUGAUGAUGCCUGAACAGCCUUGGUUUUUUG,0.799
12,GACCUAUCUGCCCUCAGAGCUCGAGAACAUCUUCGGAUGCAGAGGAGGCAGGCUUCGGUGGCGCGAUAGCGCCAACGUCCUCAACCUCCAAUGCAUCCCACCACAUGAUAAUGCCUGAAGAGCCUUGGUUUUUUG,-1
13,GACCAAUCUGCCCUCAGAGCUCGAGAACAUCUUCGGAUGCAGAGGAGGCAGGCUUCGGUGGCGCGAUAGAGCCAACGUCCUCAACCUCCAAUGCAUCCCACCACAUGAUGAUACCUGAAGAGCCUUGGUUUUUUG,-2.41
14,GACCAAUCUGCCUUCAGAGCUCGAGAACAUCUUCGGAUGCAGAGGAGGCAGGCUUCGGUGGCGCGAUAGCGCCAAUGUCCUCAACCUCCAAUGCAUCCCACCACAUGAUGAUGCCUGAAGAGCCUUGGUUUUUUG,-0.121
15,GACCAAUCUGCCCUCAGAGCUCGAGAACAUCUUCGGAUGCAGAGGAGGCAGGCUUCGGUGGCGCGAUAGCGCCAACGUCCUCAACCUACAAUGCAGCCCACCACAUGAUGAUGCCUGAAGAGCCUUGGUUUUUUG,-0.386
16,GACCAAUCUGCCAUCAGAGUUCGAGAACAUCUUCGGAAGCAGAGGAGGCAGGCUUCGGUGGCGCGAUAGCGCCAACGUCCUCAACCUCCAUUGCAUCCCACCACAUGAUGAUGCCUGAAGAGCGUUGGUUUUUUG,-1.87
17,GACCAAUCUGCCCUCAGAGCUCGAGAACAUCUUCGGAUGCAGAGGAGGCAGGCUUCGGUGCCGCGAUAGCGCCAACGUCCUCAACCUCCAAUGCAUCUCACCACAUGAUGAUGCCUGAAGAGGCUUGGUUUUAUU,-1.22
18,GACCAAUCUGCCCUCAGAGCUCGAGAACAUCUUCGGAUGCAGGGGAGGCAGGCUUCGGUGGCGCGAUAGCGACAACGUCCUCAACCUCCAAUGCAUCCCACUACAUGAUGAUGGCUGAAGAGCCUUGGUUUUUUG,-4.55
19,GACCAAUCUGCCCUCAGAGCUCGAGAACAUCUUCGGAUGCAUAGGAGGCAGGCUUCGGUGGCGCGAUAGCACCAACGUCCUCAACCUCCAAAGCAUCCCACCACAUGAUGAUGCCUGAAGAGCCUUGGUUUUUUG,-3.78
20,GACCAAUCUGCCCUCAGAGCUCGAGAACAUCUUCGGAUGCAGAGGAGGCAGGCUUCGGUAGCGCGAUAGCGCCAACGUCCUCAACCUCCAAUGCAUCCCACCACAUGAUGAUGCCUGAAGAGCCUUGGUUUUAUG,-0.249
21,GAACAAUAUGCCCUCAGAGCUCGAGAACAUCUUCGGAUGCAGAGGAGGCAGGCUUCGGUGGCGCGAUAGGGCCAACGUCCUCAACCUCCAAUGCAUCCCACCACAUGAUGAUGCCUGAAGAGCCUUGGUUUUUUG,-3.71

row,Variant,polymerase ribozyme fitness (log ratio)
1,GACCAAUCUGCCCUCAGAGCUCGAGUACAUCUUCGGAUGCAGAGGAGGCAGGCUUCGGUGGCGCGAUACCGCCAACGUCCUCAACCUCCAAUGCAUCCCACCACAUGAUGAUGCCUGAAGAGCCUUGGUUUUUUG,-4.28
2,GACCAAUCUGCCCUCAGAGCUCGAGAACAUCUUCGGAUGUAGAGGAGGCAGGCUUCGGUGGCGCGAUACCGCCAACGACCUCAACCUCCAAUGCAUCCCACCACAUGAUAAUGCCUGAAGAGCCUUGGUUUUUUG,-5.28
3,GACCAAUCUGCCCUCAGAGCUCGAGAACAUCUUCGGAUGCAGAGGAGGCAGCCUUCGGUGGCGCGAUAGCGCCAACGUCCUCAACCUCCAAUGCAUCCCACCACAUGAUGAUGCCUGAAGAGCCGUGGUUUUUUG,-1.59
4,GACCAAUCUGCGCUCAGAGCUCGAGAACAUCUUCGGAUGCCGAGGAGGCAGGCUUCGGUGGCGCGAUAGCGCCAACGUCCUUAACCUCCAAUGCAUCCCACCACAUGAUGAUGCCUGAAGAGCCUUGGUUUUUUG,-0.401
5,GACCAAUCUGCCCUCAGAGCUCGAGAACAUCUUCGGAUGGAGAGGAGGCAGGCUUCGGUGGCGCGAUAGCGCCAACUUCCUCAACCUCCAAUGCAUCCCAGCACAUGAUGAAGCCUGAAGAGCCUUGGUUUUUUG,-1.23
6,GACCAAUCUGCCCUCAGAUCUCGAGAACAUCUUCGGAUGCAGAGGAGGCAGGGAUCGGUGACGCGAUAGCGCCAACGUCCUCAACCUCCAAUGCAUCCCACCACAUGAUGAUGCCUGAAGAGCAUUGAUUUUUUG,-3.82
7,GACCAAUCUGCCCUCAGAGCUCGAGAACAUCUUCGGAUGCAGAAGAGGCAGUCUUCGGUGGCUCGAUAGCGCCAACGUCCUCAACCACCAAUGCAUCCCACCACAUGAUGAUGCCUGAAGAGCCUUGGUUUUUUG,-5.6
8,GACCAAUCUGCCCUCAGAGCUCGAGAACAUCUUCGGAUGCAGAGGAGGCAGGAUUCGGUGGCGCGAUAGCGCCAACGUCCUCAACCUCCAAUGCAUCCCACCACAUGAUGAUGCCUGAAGAGCCUUUGAUUUUUG,-0.623
9,GACCAAUCUGCCCUCAGAGCUCGAGAACAUCUUCGGAUGCAGAGGAGGCAGGCUUCGGUGGCACGAUAGCGCCAACGUCCUCAACCUCCAAUGCAUCCCACCACAUGAUGAUACCUGAAGAGCCUUGGUUUUUUG,-1.68
10,GACCAAUCUGCCCUCAGAGCUCGAGAACAUCUUCGGAUGCAGAGGAGGCAGGCUUCGGUGGCUCGAUAGCGCCAACGGCCUCAACCUCCAAUGCAUCCCACCACAUGAUGAUGCCUGAAGAGCCUUGGUUUUUUG,-3.12
11,GACCAAUCUGCCCUCAGAGCUCGAGAACAUCUUCGGAUGCAGAGGAUGCAGGCUUCGGUGGCGCGAUAGCACCAACGUCCUCAACCUCCAAUGCAUCCCACCACAUGAUGAUGCCUGAAGAGCCUUGGUUUUUUG,-1.21
12,GACCAAUUUGCUCUCAGAGCUCGAGAACAUCUUCGGAUGCAGAGGAGGUAGGCUUCGGUGGCGCGAUAGCGCCAACGUCCUCAACCUCCAAUGCAUCCCACCACAUGAUGAUGCCAGAAUAGUCUCGGUUUUUUG,-4.26
13,GACCAAUCUGCCCUCAGAGCUCGAGAACAUCUUCGGAUGCAGAGGAGGCCGGCUUCGGUGGCGCGUUAGCGUCAACGUCCGCAAACUCCAAUGCAUCCCACCACAUGAUGAUGCCUGAAGAGCCUUGGUUUUUUG,-3.05
14,GACCAAUCUGCCCUGAGAGCUCGAGAACGUCUUCGGAUGCAGAGGAGGCAGGCUUCGGUGGCGUGAUAGCGCCAAGGUCCUCAACCUCCAAUGCAUCCUACCACAUGAUGAAGCCUGAAGAGCCUUGGUUUUUUG,-6.38
15,GACCAAUCUGCCCUCAGAGCUCGAGAACAUCUUCGGAUGCAGAGAAGGCAGGCUUCGGUGGCACGACAGCGCCAACGUCCUUAGCCUCCAAUGCAACGCACCACAUGAUGAUGCCUGAAGAGCUUUGGUUUUUUG,-8.07
16,GACCAAUCUGCCCUCAGAGCUCGAGAACAUCUUCGGAUGCAGAGGAGGCAGGCUUCGGUGGCGCGAUAGCACCAACGUCCUCAACCUCCAAUGCAUCCCACCACAUGAUGAUGCCUGAAGAGCCUUGGGUUUUUG,-2.44
17,GACCAAUCUGCCCUCAGAGCUCGAGAACAUCUUCGGAUGCAGAGGAGGCAGGCUUCGGUGGCGCGAUAGCGUUAACGUCCUCAACCUCCAAUGCAUCCCACCACAUGAUGAUGCCUGAAGAGCCUUGGUUUUUUG,-1.09
18,GACCAAUCUGCCCUCAGAGUUCGAGAACAUCUUCGGAUGCAGAGGAGGCAGGCUUCGGUGGCGCGAUAGCGCCAACGCCCUCAACCUCCAAUGCAUCCCACCACAUGAUGAUGCCUGAAGAGCGUUGGUUUUUUG,0.066
19,GACCAAUCUGCCCUCAGAGCUCGAGAACAUCUUCGAAUGCAGCGGAGGCAGGCUUCGGUGGCGCGAUAGCGCGAACGUCCUCAACCUCCAAUGCAUCCCACCACAUGAUGAUGCCUGAAGAGCCUUGGUUUUUUG,-4.51
20,GACGAAUCUGCCCUCAGAGCUCGAGAACAUCUUCGGAUGCAGAGGAGGCAGGCUUCGGUGGCGCGAUAGCGCCAACGUCCUCAACCUCCAAUGCAUCCCACCACAUGAUGAUGUCUGAAGAGCCUUGGUUUUUUG,-3.57
21,GACCAAUCUGCCCUCAGAGCUCGAGAGCAUCUUCGGAUGCAGAGGAGGCAGGCUUCGGUGGCGCGAUAGCGCCAACGUCCUCAACCUACAAUGCAUCCCACCACAUGAUGAUGCCUGAAGAGCCUUGGUUUUUUG,-2.13

# Source: the RNAGym collection of RNA variant scans (doi:10.1073/pnas.2313332121)
